Experimental data taken from PMC12168134, “Improving the solubility of single domain antibodies using VH‐like hallmark residues” (Protein Science : A Publication of the Protein Society, 2025).

B1: Nlgn2 extracellular domain with His6 tag in the C-terminus (domain or fragment, mouse, UniProt Q69ZK9 15-678, looked up)
chain: QRGGGGPGGGAPGGPGLGLGSLGEERFPVVNTAYGRVRGVRRELNNEILGPVVQFLGVPYATPPLGARRFQPPEAPASWPGVRNATTLPPACPQNLHGALPAIMLPVWFTDNLEAAATYVQNQSEDCLYLNLYVPTEDGPLTKKRDEATLNPPDTDIRDSGKKPVMLFLHGGSYMEGTGNMFDGSVLAAYGNVIVVTLNYRLGVLGFLSTGDQAAKGNYGLLDQIQALRWLSENIAHFGGDPERITIFGSGAGASCVNLLILSHHSEGLFQKAIAQSGTAISSWSVNYQPLKYTRLLAAKVGCDREDSTEAVECLRRKSSRELVDQDVQPARYHIAFGPVVDGDVVPDDPEILMQQGEFLNYDMLIGVNQGEGLKFVEDSAESEDGVSASAFDFTVSNFVDNLYGYPEGKDVLRETIKFMYTDWADRDNGEMRRKTLLALFTDHQWVAPAVATAKLHADYQSPVYFYTFYHHCQAEGRPEWADAAHGDELPYVFGVPMVGATDLFPCNFSKNDVMLSAVVMTYWTNFAKTGDPNQPVPQDTKFIHTKPNRFEEVVWSKFNSKEKQYLHIGLKPRVRDNYRANKVAFWLELVPHLHNLHTELFTTTTRLPPYATRWPPRTPGPGTSGTRRPPPPATLPPESDIDLGPRAYDRFPGDSRDYSTELS
notes: Neuroligin 2 (Nlgn2), mouse, extracellular domain, residues 15-678; Construct used to immunise the alpaca; main SEC peak was a dimer; also called recombinant Nlgn2 extracellular domain; mouse Nlgn2 (15-678); source: Expi293F cells, supernatant, purified (Ni-NTA, SEC); not shown: His6, C-terminal, kept
B2: Biotinylated recombinant Nlgn2 extracellular domain with Avitag (domain or fragment, mouse, UniProt Q69ZK9 15-678, looked up)
chain: QRGGGGPGGGAPGGPGLGLGSLGEERFPVVNTAYGRVRGVRRELNNEILGPVVQFLGVPYATPPLGARRFQPPEAPASWPGVRNATTLPPACPQNLHGALPAIMLPVWFTDNLEAAATYVQNQSEDCLYLNLYVPTEDGPLTKKRDEATLNPPDTDIRDSGKKPVMLFLHGGSYMEGTGNMFDGSVLAAYGNVIVVTLNYRLGVLGFLSTGDQAAKGNYGLLDQIQALRWLSENIAHFGGDPERITIFGSGAGASCVNLLILSHHSEGLFQKAIAQSGTAISSWSVNYQPLKYTRLLAAKVGCDREDSTEAVECLRRKSSRELVDQDVQPARYHIAFGPVVDGDVVPDDPEILMQQGEFLNYDMLIGVNQGEGLKFVEDSAESEDGVSASAFDFTVSNFVDNLYGYPEGKDVLRETIKFMYTDWADRDNGEMRRKTLLALFTDHQWVAPAVATAKLHADYQSPVYFYTFYHHCQAEGRPEWADAAHGDELPYVFGVPMVGATDLFPCNFSKNDVMLSAVVMTYWTNFAKTGDPNQPVPQDTKFIHTKPNRFEEVVWSKFNSKEKQYLHIGLKPRVRDNYRANKVAFWLELVPHLHNLHTELFTTTTRLPPYATRWPPRTPGPGTSGTRRPPPPATLPPESDIDLGPRAYDRFPGDSRDYSTELS
modifications: biotin on the Avitag (biotinylated with BirA)
notes: Neuroligin 2 (Nlgn2), extracellular domain; residues 15-678 of mouse Nlgn2 are stated only for the His6 construct used for immunisation, not for this Avitag construct; probably the same; Eluted as a dimeric peak in SEC; also called Nlgn2 with Avitag; Biotinylated Nlgn2; source: purified by SEC, biotinylated with BirA; not shown: Avitag, C-terminal, kept

Experiments:
[1] = biological target: the molecule itself; assay: SEC; Hiload 16/600 Superdex 200 pg in PBS; Nlgn2 extracellular domain with His6
[2] = biological target: the molecule itself; assay: SEC; Nlgn2 with Avitag; 10 mM HEPES-NaOH pH 7.4, 150 mM NaCl, 3 mM CaCl2

| Protein | stoichiometry N [1] | stoichiometry N [2] |
| --- | --- | --- |
| B1 | 2 | – |
| B2 | – | 2 |
